How the values were obtained:
Assay in all cases: cell-based or functional assay
[1] = molecular target: HIV Env of isolate X2088.c9 (HIV)
[2] = molecular target: Env of HIV isolate 7165.18 (clade B) (HIV)
[3] = molecular target: HIV Env of isolate 96ZM651.02 (HIV)
[4] = molecular target: Env of HIV isolate Ce1176.A3 (clade C) (HIV)
[5] = molecular target: Env of HIV isolate CAP244.D3 (clade C) (HIV)
[6] = molecular target: HIV Env of isolate CAP45.G3 (HIV)
[7] = molecular target: HIV Env of isolate CNE40 (HIV)
[8] = molecular target: HIV Env of isolate BR025.9 (HIV)
[9] = molecular target: Env of HIV isolate 6322.v4.c1 (clade C) (HIV)
[10] = molecular target: HIV Env of isolate 3016.v5.c45 (HIV)
[11] = molecular target: HIV Env of isolate TZA125.17 (HIV)
[12] = molecular target: Env of HIV isolate 3326.v4.c3 (clade CD) (HIV)
[13] = molecular target: HIV Env of isolate 6631.v3.c10 (HIV)
[14] = molecular target: Env of HIV isolate 3988.25 (clade B) (HIV)
[15] = molecular target: Env of HIV isolate T253-11 (clade AG) (HIV)
[16] = molecular target: Env of HIV isolate 001428-2.42 (clade C) (HIV)
[17] = molecular target: Env of HIV isolate Q842.d12 (clade A) (HIV)
[18] = molecular target: HIV Env of isolate ZM176.66 (HIV)
[19] = molecular target: HIV Env of isolate BJOX010000.06.2 (HIV)
[20] = molecular target: HIV Env of isolate BG1168.01 (HIV)
[21] = molecular target: HIV Env of isolate YU2.DG (HIV) (UniProt P35961)
[22] = molecular target: HIV Env of isolate ZM233.6 (HIV)
[23] = molecular target: Env of HIV isolate CNE19 (clade BC) (HIV)
[24] = molecular target: HIV Env of isolate CM244.ec1 (HIV)
[25] = molecular target: HIV Env of isolate NKU3006.ec1 (HIV)
[26] = molecular target: Env of HIV isolate TH966.8 (clade AE) (HIV)
[27] = molecular target: Env of HIV isolate ZA012.29 (clade C) (HIV)
[28] = molecular target: Env of HIV isolate 25710-2.43 (clade C) (HIV)
[29] = molecular target: Env of HIV isolate BR025.9 (clade C) (HIV)
[30] = molecular target: Env of HIV isolate T250-4 (clade AG) (HIV)
[31] = molecular target: HIV Env of isolate BJOX028000.10.3 (HIV)
[32] = molecular target: HIV Env of isolate X2131.C1.B5 (HIV)
[33] = molecular target: Env of HIV isolate 3415.v1.c1 (clade A) (HIV)
[34] = molecular target: HIV Env of isolate UG021.16 (HIV)
[35] = molecular target: HIV Env of isolate P1981.C5.3 (HIV)
[36] = molecular target: HIV Env of isolate 45_01dG5 (HIV)
[37] = molecular target: Env of HIV isolate CNE14 (clade B) (HIV)
[38] = molecular target: Env of HIV isolate 6095.v1.c10 (clade ACD) (HIV)
[39] = molecular target: HIV Env of isolate TRJO.58 (HIV)
[40] = molecular target: HIV Env of isolate 620345.c1 (HIV)
[41] = molecular target: HIV Env of isolate JRFL.JB (HIV)
[42] = molecular target: HIV Env of isolate X1632.S2.B10 (HIV)
[43] = molecular target: HIV Env of isolate Q769.d22 (HIV)
[44] = molecular target: Env of HIV isolate C3347.c11 (clade AE) (HIV)
[45] = molecular target: Env of HIV isolate Q168.a2 (clade AD) (HIV)
[46] = molecular target: Env of HIV isolate TV1.29 (clade C) (HIV)
[47] = molecular target: Env of HIV isolate CNE57 (clade B) (HIV)
[48] = molecular target: HIV Env of isolate 3589.v1.c4 (HIV)
[49] = molecular target: HIV Env of isolate SC422.8 (HIV)
[50] = molecular target: HIV Env of isolate 6545.v4.c1 (HIV)
[51] = molecular target: HIV Env of isolate CNE31 (HIV)
[52] = molecular target: Env of HIV isolate 3637.v5.c3 (clade C) (HIV)
[53] = molecular target: HIV Env of isolate P0402.c2.11 (HIV)

Chain of HIV Env of isolate YU2.DG (HIV) (P35961 32-843 limits assumed): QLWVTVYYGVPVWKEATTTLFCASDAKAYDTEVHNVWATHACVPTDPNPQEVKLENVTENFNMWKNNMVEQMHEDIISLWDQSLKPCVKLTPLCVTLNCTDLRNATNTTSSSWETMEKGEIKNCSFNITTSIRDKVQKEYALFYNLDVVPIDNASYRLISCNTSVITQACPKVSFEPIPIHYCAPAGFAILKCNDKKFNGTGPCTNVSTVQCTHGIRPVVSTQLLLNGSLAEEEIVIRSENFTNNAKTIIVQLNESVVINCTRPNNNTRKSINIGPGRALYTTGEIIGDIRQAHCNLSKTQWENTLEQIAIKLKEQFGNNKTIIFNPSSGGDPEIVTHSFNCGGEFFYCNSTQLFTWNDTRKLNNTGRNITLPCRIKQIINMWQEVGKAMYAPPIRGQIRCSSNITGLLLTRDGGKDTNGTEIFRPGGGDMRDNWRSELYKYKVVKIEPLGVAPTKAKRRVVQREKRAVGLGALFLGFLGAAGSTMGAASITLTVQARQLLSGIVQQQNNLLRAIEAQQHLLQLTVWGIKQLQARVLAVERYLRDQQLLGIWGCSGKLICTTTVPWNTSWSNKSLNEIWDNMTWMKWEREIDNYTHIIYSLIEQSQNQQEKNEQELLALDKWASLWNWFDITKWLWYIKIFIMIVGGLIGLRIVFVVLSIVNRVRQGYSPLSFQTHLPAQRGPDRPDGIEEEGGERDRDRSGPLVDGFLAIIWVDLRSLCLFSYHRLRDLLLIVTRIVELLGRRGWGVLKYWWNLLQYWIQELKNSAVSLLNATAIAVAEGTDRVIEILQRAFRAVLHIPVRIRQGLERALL

## PGT121 (antibody)
[1]
  IC80, pseudovirus neutralization: 0.019 µg/mL
[2]
  IC50, pseudovirus neutralization: 0.0363 µg/mL
[3]
  IC80, pseudovirus neutralization: 0.0613 µg/mL
[4]
  IC50, pseudovirus neutralization: 0.0243 µg/mL
[5]
  IC50, pseudovirus neutralization: > 50 µg/mL
[6]
  IC80, pseudovirus neutralization: > 50 µg/mL
[7]
  IC80, pseudovirus neutralization: 1.21 µg/mL
[8]
  IC80, pseudovirus neutralization: 0.0253 µg/mL
[9]
  IC50, pseudovirus neutralization: > 50 µg/mL
[10]
  IC80, pseudovirus neutralization: > 50 µg/mL
[11]
  IC80, pseudovirus neutralization: 9.43 µg/mL
[12]
  IC50, pseudovirus neutralization: > 50 µg/mL
[13]
  IC80, pseudovirus neutralization: > 50 µg/mL
[14]
  IC50, pseudovirus neutralization: 0.0127 µg/mL
[15]
  IC50, pseudovirus neutralization: > 50 µg/mL
[16]
  IC50, pseudovirus neutralization: 0.0337 µg/mL
[17]
  IC50, pseudovirus neutralization: 0.0217 µg/mL
[18]
  IC80, pseudovirus neutralization: 27.6 µg/mL
[19]
  IC80: > 50 µg/mL
[20]
  IC80: > 50 µg/mL
[21]
  IC80: 0.126 µg/mL
[22]
  IC80, pseudovirus neutralization: 3.6 µg/mL
[23]
  IC50, pseudovirus neutralization: 0.00933 µg/mL
[24]
  IC80: > 50 µg/mL
[25]
  IC80, pseudovirus neutralization: > 50 µg/mL
[26]
  IC50, pseudovirus neutralization: > 50 µg/mL
[27]
  IC50, pseudovirus neutralization: 0.0117 µg/mL
[28]
  IC50, pseudovirus neutralization: 0.0227 µg/mL
[29]
  IC50, pseudovirus neutralization: 0.00967 µg/mL
[30]
  IC50, pseudovirus neutralization: 0.00433 µg/mL
[31]
  IC80: > 50 µg/mL
[32]
  IC80, pseudovirus neutralization: 0.036 µg/mL
[33]
  IC50, pseudovirus neutralization: > 50 µg/mL
[34]
  IC80, pseudovirus neutralization: > 50 µg/mL
[35]
  IC80, pseudovirus neutralization: 0.013 µg/mL
[36]
  IC80: 0.0257 µg/mL
[37]
  IC50, pseudovirus neutralization: 0.0103 µg/mL
[38]
  IC50, pseudovirus neutralization: 1.98 µg/mL
[39]
  IC80: 18.6 µg/mL
[40]
  IC80: > 50 µg/mL
[41]
  IC80: 0.107 µg/mL
[42]
  IC80, pseudovirus neutralization: > 50 µg/mL
[43]
  IC80: > 50 µg/mL
[44]
  IC50, pseudovirus neutralization: > 50 µg/mL
[45]
  IC50, pseudovirus neutralization: > 50 µg/mL
[46]
  IC50, pseudovirus neutralization: 0.146 µg/mL
[47]
  IC50, pseudovirus neutralization: 0.0283 µg/mL
[48]
  IC80: > 50 µg/mL
[49]
  IC80: 0.3 µg/mL
[50]
  IC80: > 50 µg/mL
[51]
  IC80, pseudovirus neutralization: 2.08 µg/mL
[52]
  IC50, pseudovirus neutralization: > 50 µg/mL
[53]
  IC80, pseudovirus neutralization: 0.0297 µg/mL

Reference: patent US20210292396A1
